The record followed here is US20220411531A1 (SUMGEN MAB BEIJING BIOTECH, published 2022).

The assay addresses T1, AXL on the surfaces of human tumour cells (A549, MDA-MB-231, 786-O) (human, UniProt P30530 27-894).
T1 construct: Endogenous AXL on human tumour cell lines; The tie to the cell-line protein rests on this general definition only; also called cell surface antigen
T1 sequence: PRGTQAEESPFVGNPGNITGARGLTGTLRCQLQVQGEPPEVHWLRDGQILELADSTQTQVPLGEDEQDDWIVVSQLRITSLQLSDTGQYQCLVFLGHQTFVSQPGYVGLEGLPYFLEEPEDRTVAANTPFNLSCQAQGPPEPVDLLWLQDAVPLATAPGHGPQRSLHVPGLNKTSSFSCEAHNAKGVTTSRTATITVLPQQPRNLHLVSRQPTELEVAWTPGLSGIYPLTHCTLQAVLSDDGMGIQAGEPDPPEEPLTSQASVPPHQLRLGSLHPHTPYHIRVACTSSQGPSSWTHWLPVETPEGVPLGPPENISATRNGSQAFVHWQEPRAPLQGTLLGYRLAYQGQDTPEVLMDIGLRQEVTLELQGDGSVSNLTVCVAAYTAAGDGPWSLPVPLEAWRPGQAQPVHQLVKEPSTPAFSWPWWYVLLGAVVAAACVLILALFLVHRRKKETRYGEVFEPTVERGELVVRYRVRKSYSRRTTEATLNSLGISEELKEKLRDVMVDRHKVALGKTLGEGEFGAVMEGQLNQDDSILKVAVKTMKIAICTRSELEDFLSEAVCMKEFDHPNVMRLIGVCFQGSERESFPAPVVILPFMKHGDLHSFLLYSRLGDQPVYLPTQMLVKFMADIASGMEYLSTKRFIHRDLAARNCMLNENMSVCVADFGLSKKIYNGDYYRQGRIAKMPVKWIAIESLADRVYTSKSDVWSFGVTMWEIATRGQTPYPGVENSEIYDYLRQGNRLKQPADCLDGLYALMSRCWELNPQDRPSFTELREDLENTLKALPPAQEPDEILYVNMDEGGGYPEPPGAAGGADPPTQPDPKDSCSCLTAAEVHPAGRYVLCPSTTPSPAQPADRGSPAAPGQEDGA
Briefly: flow cytometry on MDA-MB-231 cells (second experiment, FIG. 9); MDA-MB-231 cells; second experiment, FIG. 9. As to the method: Cells in a logarithmic growth phase were collected; the cell density was regulated to 5×10⁶ cells/mL; and pre-cooling was performed on ice. The antibodies 6G12M11, 6G12M21, 6G12M31, and 6G12M41 were diluted to 20 μg/ml with pre-cooled normal saline containing 2% FBS. 100 μl of cells were taken, and an equal volume of each of the foregoing diluted antibodies was added to the cells to react for 30 minutes at 4° C. in the dark. After the completion of reaction, the cells were washed twice with pre-cooled physiological saline containing 2% FBS (6000 rpm, 45 s). The secondary antibody PE Mouse Anti-Human IgG (BD Pharmingen) was diluted at 1:5 with pre-cooled physiological saline containing 2% FBS, and 100 μL of the secondary antibody was taken for resuspending the cells, with a reaction conducted for 30 minutes at 4° C. in the dark. After the reaction, the cells were washed twice with pre-cooled physiological saline containing 2% FBS (6000 rpm, 45 s). The cells were resuspended by using 400 μl of 1% paraformaldehyde. The binding of antibodies to cell surface antigens was analyzed by means of a flow cytometer (BD Calibur).
(A flow cytometer gives signals particle by particle.)

B1: antibody 6G12M21 (antibody, human IgG1, kappa, V domains shown)
VH: QVQLVQSGPGLVKPSQSLSLTCSVTGFSISSGYYWNWIRQFPGQKLEWMGYRSYDGSNNYNPSLKNRISITRDTSKNQFFLKLNSVTSEDTATYYCARGWLLHYTMDYWGQGTTVTVSS
VL: DIVMTQSPSSVSVTLGQSASISCRSSRSLLHSNGFTYLYWYLQKPGQSPQLLIYQMSNLASGVPDRFSGSGSGTDFTLKISRVEAEDVGVYYCGQNLELPLTFGGGTKLEIKR
In turn, B1 had an EC50 of 0.64 µg/mL.

By EC50 is commonly meant the concentration that produces a half-maximal response. A lower EC50 goes with greater potency.
